# Measured values as given in patent US20170088605A1.
# How the values were obtained:
# [1] = biological target: BKV serotype I infectious virus (VP1) (BK virus serotype I) (UniProt P03088)
# [2] = biological target: BKV serotype II chimeric infectious virus (VP1 of isolate SB) (BK virus serotype II)
# [3] = biological target: BKV serotype III chimeric infectious virus (VP1 of isolate AS) (BK virus serotype III)
# [4] = biological target: BKV serotype IV chimeric infectious virus (VP1 of strain ITA-4) (BK virus serotype IV)
# BKV serotype I infectious virus (VP1) (BK virus serotype I), sequence (P03088 whole entry): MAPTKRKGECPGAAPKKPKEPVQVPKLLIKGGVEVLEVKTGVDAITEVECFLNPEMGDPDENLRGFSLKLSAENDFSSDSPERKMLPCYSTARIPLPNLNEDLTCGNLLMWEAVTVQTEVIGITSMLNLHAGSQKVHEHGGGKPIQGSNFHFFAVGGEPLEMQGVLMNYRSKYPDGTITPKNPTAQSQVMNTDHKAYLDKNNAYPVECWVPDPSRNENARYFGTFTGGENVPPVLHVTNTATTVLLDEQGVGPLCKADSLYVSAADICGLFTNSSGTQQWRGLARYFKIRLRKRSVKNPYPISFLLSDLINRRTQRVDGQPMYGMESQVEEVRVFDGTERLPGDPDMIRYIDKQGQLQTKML
binder,measurement,setting,value
"P46F4 (antibody, V domains shown) VH: QVQLQESGPGLVKPSQTLSLTCTVSGGSISNGGYYWSWIRLHPGKGLEWIGCIHYSGGTYYNPSLKSRVTVSLDTSKNQFSLNLISVTAADTAIYFCARALIAAPGISDWFDPWGQGTLVTVSS VL: QSVLTQPPSVSAAPGQKVTISCSGSNSNVGHNYVSWYQQLPGTAPKLLIYDNNKRPSGIPDRFSGSKSGTSATLGITGLQTGDEADYYCGTWDSSLSAGVFGGGTKVTVLG",neutralization EC50,[1],0.004 µg/mL
same,neutralization EC90,[1],0.29 µg/mL
same,neutralization EC50,[2],> 100 µg/mL
same,neutralization EC90,[2],> 100 µg/mL
same,neutralization EC50,[3],> 100 µg/mL
same,neutralization EC90,[3],> 100 µg/mL
same,neutralization EC50,[4],> 100 µg/mL
same,neutralization EC90,[4],> 100 µg/mL
